Reference: patent US7476500

Key:
Assay in all cases: cell_activity
I-ScaI D90S D90S = details: catalytically inactive, background; binding not tested
I-ScaI I250N I250N = details: three site copies in pBar2, E. coli
I-ScaI = details: three site copies in pBar2, E. coli

## TGAGGTGCACTAGTTA (double strand) [I-ScaI site]
I-ScaI D90S D90S
  activity: 18 % survival
I-ScaI I250N I250N
  activity: 27 % survival
I-ScaI
  activity: 65 % survival
